Data from the supplement of paper PMC10567573.

B1: C8orf76 (parent)
chain: YCAKLCEPQWFYEETESSDDVEVL
B2: ZNF449 (parent)
chain: QLTGHQRIHSGEEPHKCPECGKRF

Variants of: B1
Assay: protein stability index of a GFP-peptide fusion (GPS, HEK-293T) (PSI 1-6); higher = more stable
Details: c terminus: a fixed tail appended
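Also: lentivirally expressed fusions sorted by FACS into six bins by GFP to DsRed ratio, PSI derived from sequencing read proportions per bin multiplied by bin number.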

Point of comparison: YSAKLCEPQWFYEETESSDDVEVL [C2S], protein stability index 3.63. Against it:
- GCAKLCEPQWFYEETESSDDVEVL [Y1G] — higher, 4.56
- NCAKLCEPQWFYEETESSDDVEVL [Y1N] — higher, 5.01
- CCAKLCEPQWFYEETESSDDVEVL [Y1C] — higher, 4.28
- PCAKLCEPQWFYEETESSDDVEVL [Y1P] — higher, 4.76
- WCAKLCEPQWFYEETESSDDVEVL [Y1W] — higher, 3.66
- KCAKLCEPQWFYEETESSDDVEVL [Y1K] — higher, 4.66
- ICAKLCEPQWFYEETESSDDVEVL [Y1I] — lower, 3.45
- QCAKLCEPQWFYEETESSDDVEVL [Y1Q] — higher, 4.45
- SCAKLCEPQWFYEETESSDDVEVL [Y1S] — higher, 4.19
- FCAKLCEPQWFYEETESSDDVEVL [Y1F] — lower, 1.91
- ECAKLCEPQWFYEETESSDDVEVL [Y1E] — higher, 4.99
- LCAKLCEPQWFYEETESSDDVEVL [Y1L] — higher, 3.71
- MCAKLCEPQWFYEETESSDDVEVL [Y1M] — higher, 4.26
- ACAKLCEPQWFYEETESSDDVEVL [Y1A] — higher, 4.42
- DCAKLCEPQWFYEETESSDDVEVL [Y1D] — higher, 5.04
- TCAKLCEPQWFYEETESSDDVEVL [Y1T] — higher, 5.11
- HCAKLCEPQWFYEETESSDDVEVL [Y1H] — higher, 4.36
- RCAKLCEPQWFYEETESSDDVEVL [Y1R] — higher, 4.92
- VCAKLCEPQWFYEETESSDDVEVL [Y1V] — higher, 4.2
- YPAKLCEPQWFYEETESSDDVEVL [C2P] — higher, 4.2
- YGAKLCEPQWFYEETESSDDVEVL [C2G] — higher, 3.72
- YRAKLCEPQWFYEETESSDDVEVL [C2R] — higher, 4.17
- YEAKLCEPQWFYEETESSDDVEVL [C2E] — higher, 4.91
- YFAKLCEPQWFYEETESSDDVEVL [C2F] — lower, 2.59
- YLAKLCEPQWFYEETESSDDVEVL [C2L] — lower, 2.94
- YHAKLCEPQWFYEETESSDDVEVL [C2H] — lower, 1.68
- YMAKLCEPQWFYEETESSDDVEVL [C2M] — lower, 3.62
- YNAKLCEPQWFYEETESSDDVEVL [C2N] — lower, 2.91
- YKAKLCEPQWFYEETESSDDVEVL [C2K] — higher, 4.17
- YIAKLCEPQWFYEETESSDDVEVL [C2I] — lower, 2.65
- YDAKLCEPQWFYEETESSDDVEVL [C2D] — higher, 4.96
- YQAKLCEPQWFYEETESSDDVEVL [C2Q] — lower, 2.51
- YAAKLCEPQWFYEETESSDDVEVL [C2A] — lower, 1.94

Variants of: B2
Assay: as above
Details: c terminus: a fixed tail appended

Point of comparison: QLTGHQRIHSGEEPHKCPECGSRF [K22S], protein stability index 4.71. Against it:
- QLTGHQRIHSGEEPHKCPECGKRN [F24N] — lower, 4.4
- QLTGHQRIHSGEEPHKCPECGKRC [F24C] — higher, 5.12
- QLTGHQRIHSGEEPHKCPECGKRE [F24E] — higher, 4.88
- QLTGHQRIHSGEEPHKCPECGKRA [F24A] — higher, 5.07
- QLTGHQRIHSGEEPHKCPECGKRY [F24Y] — lower, 4.58
- QLTGHQRIHSGEEPHKCPECGKRT [F24T] — higher, 4.83
- QLTGHQRIHSGEEPHKCPECGKRQ [F24Q] — lower, 4.62
- QLTGHQRIHSGEEPHKCPECGKRL [F24L] — lower, 4.64
- QLTGHQRIHSGEEPHKCPECGKRG [F24G] — lower, 4.7
- QLTGHQRIHSGEEPHKCPECGKRI [F24I] — lower, 3.65
- QLTGHQRIHSGEEPHKCPECGKRM [F24M] — lower, 4.13
- QLTGHQRIHSGEEPHKCPECGKRH [F24H] — higher, 4.84
- QLTGHQRIHSGEEPHKCPECGKSF [R23S] — higher, 4.83
- QLTGHQRIHSGEEPHKCPECGKPF [R23P] — lower, 4.28
- QLTGHQRIHSGEEPHKCPECGKEF [R23E] — higher, 5.37
- QLTGHQRIHSGEEPHKCPECGKFF [R23F] — lower, 3.98
- QLTGHQRIHSGEEPHKCPECGKGF [R23G] — lower, 4.32
- QLTGHQRIHSGEEPHKCPECGKQF [R23Q] — lower, 3.44
- QLTGHQRIHSGEEPHKCPECGKAF [R23A] — higher, 4.91
- QLTGHQRIHSGEEPHKCPECGKNF [R23N] — lower, 3.95
- QLTGHQRIHSGEEPHKCPECGKMF [R23M] — lower, 4.06
- QLTGHQRIHSGEEPHKCPECGKLF [R23L] — higher, 4.74
- QLTGHQRIHSGEEPHKCPECGKHF [R23H] — lower, 4.23
- QLTGHQRIHSGEEPHKCPECGKKF [R23K] — higher, 5.28
- QLTGHQRIHSGEEPHKCPECGKDF [R23D] — higher, 4.99
- QLTGHQRIHSGEEPHKCPECGKTF [R23T] — lower, 4.52
- QLTGHQRIHSGEEPHKCPECGKWF [R23W] — lower, 3.92
- QLTGHQRIHSGEEPHKCPECGKCF [R23C] — lower, 3.93
- QLTGHQRIHSGEEPHKCPECGKVF [R23V] — higher, 4.72
- QLTGHQRIHSGEEPHKCPECMKRF [G21M] — lower, 4.53
- QLTGHQRIHSGEEPHKCPECPKRF [G21P] — lower, 4.7
- QLTGHQRIHSGEEPHKCPECIKRF [G21I] — lower, 4.34
- QLTGHQRIHSGEEPHKCPECWKRF [G21W] — lower, 3.73
- QLTGHQRIHSGEEPHKCPECKKRF [G21K] — lower, 4.41
- QLTGHQRIHSGEEPHKCPECTKRF [G21T] — lower, 4.47
- QLTGHQRIHSGEEPHKCPECSKRF [G21S] — lower, 4.32
- QLTGHQRIHSGEEPHKCPECVKRF [G21V] — lower, 4.49
- QLTGHQRIHSGEEPHKCPECYKRF [G21Y] — lower, 3.6
- QLTGHQRIHSGEEPHKCPECRKRF [G21R] — lower, 4.34
- QLTGHQRIHSGEEPHKCPECNKRF [G21N] — lower, 4.47
- QLTGHQRIHSGEEPHKCPECQKRF [G21Q] — lower, 4.47
- QLTGHQRIHSGEEPHKCPECLKRF [G21L] — lower, 4.6
- QLTGHQRIHSGEEPHKCPECGFRF [K22F] — lower, 4.03
- QLTGHQRIHSGEEPHKCPECGQRF [K22Q] — lower, 3.85
- QLTGHQRIHSGEEPHKCPECGYRF [K22Y] — lower, 4.3
- QLTGHQRIHSGEEPHKCPECGDRF [K22D] — lower, 4.49
- QLTGHQRIHSGEEPHKCPECGRRF [K22R] — lower, 4
- QLTGHQRIHSGEEPHKCPECGTRF [K22T] — lower, 4.21
- QLTGHQRIHSGEEPHKCPECGERF [K22E] — lower, 4.62
- QLTGHQRIHSGEEPHKCPECGCRF [K22C] — lower, 4.2
- QLTGHQRIHSGEEPHKCPECGARF [K22A] — higher, 4.72
- QLTGHQRIHSGEEPHKCPECGPRF [K22P] — lower, 4.22
- QLTGHQRIHSGEEPHKCPECGIRF [K22I] — lower, 3.73
- QLTGHQRIHSGEEPHKCPECGHRF [K22H] — lower, 4.3
- QLTGHQRIHSGEEPHKCPECGLRF [K22L] — lower, 4.29
- QLTGHQRIHSGEEPHKCPECGNRF [K22N] — lower, 4.16
- QLTGHQRIHSGEEPHKCPECGWRF [K22W] — lower, 3.6
- QLTGHQRIHSGEEPHKCPECGMRF [K22M] — lower, 4.43
- QLTGHQRIHSGEEPHKCPECGVRF [K22V] — lower, 4.51
